Experiments:
Assay in all cases: SPR
Conditions in all cases: EMSA: 5 mM Hepes pH 7.5, 0.05 mM EDTA, 0.014% Nonidet P40, 5% glycerol, 30 min, 23 C; SPR: 5 mM Hepes pH 7.5, 5 mM phosphate pH 7.5, 0.05 mM EDTA …
[1] = system: Yap8bZIPL26A (Saccharomyces cerevisiae)
[2] = system: Yap8bZIPLNNR (Saccharomyces cerevisiae)
[3] = system: Yap8bZIP (Saccharomyces cerevisiae)

Substance: Y8RE 25-bp SPR oligomer
- Kd [1]: 17.2 nM
- Kd [2]: 6.5 nM
- Kd [3]: 6.1 nM

Source: PMC3865217
